Assay results: patent US20230265151A1, “GIP/GLP1 CO-AGONIST COMPOUNDS” (priority 2020, published 2023)
*1 amine or outer side, *2 acyl side, *3 side chain or, on linkers, in order; H or OH if unused. Where no end group is shown, it is not given here. Side-chain parts run from the residue outwards. [ ]: non-standard residue; d: D form. The star is where a group is joined. Decanoyl(10-(4-HOOC-PhO)) = O=C(O)c1ccc(OCCCCCCCCCC(=O)*)cc1; αMePhe(2-F) = C[C@](N)(Cc1ccccc1F)C(=O)O; γGlu = O=C(O)[C@H](CCC(=O)[*:2])N[*:1]; C14 diacid = O=C(O)CCCCCCCCCCCCC(=O)*; αMeY = C[C@](N)(Cc1ccc(O)cc1)C(=O)O; αMeL = CC(C)C[C@](C)(N)C(=O)O; Orn = NCCC[C@H](N)C(=O)O; AEEA = NCCOCCOCC(=O)O; Aib = CC(C)(N)C(=O)O

T1: human GIP receptor (human, UniProt P48546 22-466)
T1 sequence (looked up): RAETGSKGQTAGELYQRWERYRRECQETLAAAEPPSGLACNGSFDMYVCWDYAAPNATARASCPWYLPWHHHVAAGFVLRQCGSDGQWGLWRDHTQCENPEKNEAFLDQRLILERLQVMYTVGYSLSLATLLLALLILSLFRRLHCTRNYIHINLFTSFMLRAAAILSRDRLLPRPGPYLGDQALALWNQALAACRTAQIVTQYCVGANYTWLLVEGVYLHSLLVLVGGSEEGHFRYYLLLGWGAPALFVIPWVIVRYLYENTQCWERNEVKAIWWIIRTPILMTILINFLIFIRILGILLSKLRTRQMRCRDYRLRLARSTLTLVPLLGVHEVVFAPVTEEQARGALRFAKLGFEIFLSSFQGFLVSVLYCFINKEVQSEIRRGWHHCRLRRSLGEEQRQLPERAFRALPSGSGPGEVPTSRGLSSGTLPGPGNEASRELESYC

B1: Example 449 (peptide)
peptide: YXEGTXTSDXXIXLDXQAQXXFIKXLIKGGPSSGAPPPS
modifications: not fully specified; Y-Aib-EGT-αMeF(2F)-TSD-4Pal-Aib-I-αMeL-LD-Orn-QAQ-Aib-Orn-FIK((2-[2-(2-Amino-ethoxy)-ethoxy]-acetyl)-Ahx-(γ-Glu)-CO-(CH2)12-CO2)-αMeY-LIK((2-[2-(2-Amino-ethoxy)-ethoxy]-acetyl)-Ahx-(γ-Glu)-CO-(CH2)12-CO2)GGPSSGAPPPS-NH2
B2: Example 453 (peptide)
peptide: B1 peptide
modifications: Y-Aib-EGT-αMeF(2F)-TSD-4Pal-Aib-I-αMeL-LD-Orn-QAQ-Aib-Orn-FIK((2-[2-(2-Amino-ethoxy)-ethoxy]-acetyl)-Ahx-(γ-Glu)-(10-(4-carboxyphenoxy)decanoyl))-αMeY-LIK((2-[2-(2-Amino-ethoxy)-ethoxy]-acetyl)-Ahx-(γ-Glu)-(10-(4-carboxyphenoxy)decanoyl))GGPSSGAPPPS-NH2
B3: Example 457 (peptide)
peptide: B1 peptide
modifications: Y-Aib-EGT-αMeF(2F)-TSD-4Pal-Aib-I-αMeL-LD-Orn-QAQ-Aib-Orn-FIK(PEG4-(γ-Glu)-CO-(CH2)12-CO2H)-αMeY-LIK(PEG4-(γ-Glu)-CO-(CH2)12-CO2H)GGPSSGAPPPS-NH2
B4: Example 466 (peptide)
peptide: B1 peptide
modifications: Y-Aib-EGT-αMeF(2F)-TSD-4Pal-Aib-I-αMeL-LD-Orn-QAQ-Aib-Orn-FIK(PEG6-(γ-Glu)-CO-(CH2)12-CO2H)-αMeY-LIK(PEG6-(γ-Glu)-CO-(CH2)12-CO2H)GGPSSGAPPPS-NH2
B5: Example 458 (peptide)
peptide: B1 peptide
modifications: Y-Aib-EGT-αMeF(2F)-TSD-4Pal-Aib-I-αMeL-LD-Orn-QAQ-Aib-Orn-FIK(PEG3-(γ-Glu)-CO-(CH2)12-CO2H)-αMeY-LIK(PEG3-(γ-Glu)-CO-(CH2)12-CO2H)GGPSSGAPPPS-NH2
B6: Example 461 (peptide)
peptide: B1 peptide
modifications: Y-Aib-EGT-αMeF(2F)-TSD-4Pal-Aib-I-αMeL-LD-Orn-QAQ-Aib-Orn-FIK(PEG4-(γ-Glu)-(10-(4-carboxyphenoxy)decanoyl))-αMeY-LIK(PEG4-(γ-Glu)-(10-(4-carboxyphenoxy)decanoyl))GGPSSGAPPPS-NH2
B7: Example 463 (peptide)
peptide: B1 peptide
modifications: Y-Aib-EGT-αMeF(2F)-TSD-4Pal-Aib-I-αMeL-LD-Orn-QAQ-Aib-Orn-FIK((2-[2-(2-Amino-ethoxy)-ethoxy]-acetyl)-(γ-Glu)-(10-(4-carboxyphenoxy)decanoyl))-αMeY-LIK((2-[2-(2-Amino-ethoxy)-ethoxy]-acetyl)-(γ-Glu)-(10-(4-carboxyphenoxy)decanoyl))GGPSSGAPPPS-NH2
B8: Example 450 (peptide)
peptide: B1 peptide
modifications: not fully specified; Y-Aib-EGT-αMeF(2F)-TSD-4Pal-Aib-I-αMeL-LD-Orn-QAQ-Aib-Orn-FIK((2-[2-(2-Amino-ethoxy)-ethoxy]-acetyl)-Aoc-(γ-Glu)-CO-(CH2)12-CO2)-αMeY-LIK((2-[2-(2-Amino-ethoxy)-ethoxy]-acetyl)-Aoc-(γ-Glu)-CO-(CH2)12-CO2)GGPSSGAPPPS-NH2
B9: Example 459 (peptide)
peptide: B1 peptide
modifications: Y-Aib-EGT-αMeF(2F)-TSD-4Pal-Aib-I-αMeL-LD-Orn-QAQ-Aib-Orn-FIK((2-[2-(2-Amino-ethoxy)-ethoxy]-acetyl)-(γ-Glu)-CO-(CH2)12-CO2H)-αMeY-LIK((2-[2-(2-Amino-ethoxy)-ethoxy]-acetyl)-(γ-Glu)-CO-(CH2)12-CO2H)GGPSSGAPPPS-NH2
B10: Example 468 (peptide)
peptide: B1 peptide
modifications: Y-Aib-EGT-αMeF(2F)-TSD-4Pal-Aib-I-αMeL-LD-Orn-QAQ-Aib-Orn-FIK(PEG6-(γ-Glu)-(10-(4-carboxyphenoxy)decanoyl))-αMeY-LIK(PEG6-(γ-Glu)-(10-(4-carboxyphenoxy)decanoyl))GGPSSGAPPPS-NH2
B11: Example 448 (peptide)
peptide: Y[Aib]EGT[αMePhe(2-F)]TSDV[Aib]I[αMeL]LD[Orn]QAQ[Aib][Orn]FIK([AEEA-AEEA-γGlu-C14 diacid])[αMeY]LIK([AEEA-AEEA-γGlu-C14 diacid])GGPSSGAPPPS-NH2
modifications: N-terminus assumed
SMILES: CC[C@H](C)[C@H](NC(=O)[C@H](CC(C)C)NC(=O)[C@](C)(Cc1ccc(O)cc1)NC(=O)[C@H](CCCCNC(=O)COCCOCCNC(=O)COCCOCCNC(=O)CC[C@H](NC(=O)CCCCCCCCCCCCC(=O)O)C(=O)O)NC(=O)[C@@H](NC(=O)[C@H](Cc1ccccc1)NC(=O)[C@H](CCCN)NC(=O)C(C)(C)NC(=O)[C@H](CCC(N)=O)NC(=O)[C@H](C)NC(=O)[C@H](CCC(N)=O)NC(=O)[C@H](CCCN)NC(=O)[C@H](CC(=O)O)NC(=O)[C@H](CC(C)C)NC(=O)[C@](C)(CC(C)C)NC(=O)[C@@H](NC(=O)C(C)(C)NC(=O)[C@@H](NC(=O)[C@H](CC(=O)O)NC(=O)[C@H](CO)NC(=O)[C@@H](NC(=O)[C@](C)(Cc1ccccc1F)NC(=O)[C@@H](NC(=O)CNC(=O)[C@H](CCC(=O)O)NC(=O)C(C)(C)NC(=O)[C@@H](N)Cc1ccc(O)cc1)[C@@H](C)O)[C@@H](C)O)C(C)C)[C@@H](C)CC)[C@@H](C)CC)C(=O)N[C@@H](CCCCNC(=O)COCCOCCNC(=O)COCCOCCNC(=O)CC[C@H](NC(=O)CCCCCCCCCCCCC(=O)O)C(=O)O)C(=O)NCC(=O)NCC(=O)N1CCC[C@H]1C(=O)N[C@@H](CO)C(=O)N[C@@H](CO)C(=O)NCC(=O)N[C@@H](C)C(=O)N1CCC[C@H]1C(=O)N1CCC[C@H]1C(=O)N1CCC[C@H]1C(=O)N[C@@H](CO)C(N)=O

Each binder was assayed against T1, human GIP receptor (assay: cell-based or functional assay).
With B1 the “cAMP EC50 (1.0% HSA)” value was 0.595 nM. With B2 the “cAMP EC50 (1.0% HSA)” value was 0.451 nM. With B3 the “cAMP EC50 (1.0% HSA)” value was 0.334 nM. For B4, the “cAMP EC50 (1.0% HSA)” value was 0.314 nM. In the case of B5, the “cAMP EC50 (1.0% HSA)” value is reported as 0.726 nM. For B6, the “cAMP EC50 (1.0% HSA)” value was 0.247 nM. B7 was tested, and the “cAMP EC50 (1.0% HSA)” value was 0.35 nM. In the case of B8, the “cAMP EC50 (1.0% HSA)” value is reported as 2.44 nM. B9 was tested, and the “cAMP EC50 (1.0% HSA)” value was 0.323 nM. With B10 the “cAMP EC50 (1.0% HSA)” value was 0.222 nM. For B11, the “cAMP EC50 (1.0% HSA)” value was 1.41 nM. In the case of Y[Aib]EGT[αMePhe(2-F)]TSDV[Aib]I[αMeL]LD[Orn]QAQ[Aib][Orn]FIK([AEEA-AEEA-γGlu-Decanoyl(10-(4-HOOC-PhO))])[αMeY]LIK([AEEA-AEEA-γGlu-Decanoyl(10-(4-HOOC-PhO))])GGPSSGAPPPS-NH2 [Example 447], the “cAMP EC50 (1.0% HSA)” value is reported as 1.46 nM.

The binders below were run against human glucagon receptor (human, UniProt P47871 26-477) (assay: cell-based or functional assay).
Chain of human glucagon receptor (P47871 26-477): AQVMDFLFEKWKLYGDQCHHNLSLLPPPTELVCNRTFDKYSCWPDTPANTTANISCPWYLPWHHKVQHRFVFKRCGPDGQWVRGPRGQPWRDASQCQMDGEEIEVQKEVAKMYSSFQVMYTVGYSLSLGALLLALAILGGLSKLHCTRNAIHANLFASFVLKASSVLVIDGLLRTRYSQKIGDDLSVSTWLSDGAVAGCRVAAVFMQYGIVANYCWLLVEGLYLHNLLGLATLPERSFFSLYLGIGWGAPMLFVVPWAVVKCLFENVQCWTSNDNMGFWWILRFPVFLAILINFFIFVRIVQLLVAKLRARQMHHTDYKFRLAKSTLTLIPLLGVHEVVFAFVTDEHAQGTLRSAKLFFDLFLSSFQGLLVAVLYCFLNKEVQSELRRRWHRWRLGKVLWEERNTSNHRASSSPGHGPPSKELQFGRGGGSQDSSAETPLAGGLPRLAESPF
B1 was tested, and the “cAMP EC50 (1.0% HSA)” value was over 9950 nM. B2 was tested, and the “cAMP EC50 (1.0% HSA)” value was over 9950 nM. With B3 the “cAMP EC50 (1.0% HSA)” value was over 9950 nM. With B4 the “cAMP EC50 (1.0% HSA)” value was over 10100 nM. For B5, the “cAMP EC50 (1.0% HSA)” value was over 9950 nM. For B6, the “cAMP EC50 (1.0% HSA)” value was over 10100 nM. For B7, the “cAMP EC50 (1.0% HSA)” value was over 9950 nM. B8 was tested, and the “cAMP EC50 (1.0% HSA)” value was over 9950 nM. With B9 the “cAMP EC50 (1.0% HSA)” value was over 9950 nM. In the case of B10, the “cAMP EC50 (1.0% HSA)” value is reported as over 10100 nM. For B11, the “cAMP EC50 (1.0% HSA)” value was over 9950 nM. Y[Aib]EGT[αMePhe(2-F)]TSDV[Aib]I[αMeL]LD[Orn]QAQ[Aib][Orn]FIK([AEEA-AEEA-γGlu-Decanoyl(10-(4-HOOC-PhO))])[αMeY]LIK([AEEA-AEEA-γGlu-Decanoyl(10-(4-HOOC-PhO))])GGPSSGAPPPS-NH2 [Example 447] was tested, and the “cAMP EC50 (1.0% HSA)” value was over 9950 nM.

These binders were tested against human GLP-1 receptor (human, UniProt P43220 24-463) (assay: cell-based or functional assay).
In the case of B1, the “cAMP EC50 (1.0% HSA)” value is reported as 7.27 nM. In the case of B2, the “cAMP EC50 (1.0% HSA)” value is reported as 5.47 nM. In the case of B3, the “cAMP EC50 (1.0% HSA)” value is reported as 4.69 nM. B4 was tested, and the “cAMP EC50 (1.0% HSA)” value was 3.32 nM. In the case of B5, the “cAMP EC50 (1.0% HSA)” value is reported as 7.61 nM. With B6 the “cAMP EC50 (1.0% HSA)” value was 2.76 nM. For B7, the “cAMP EC50 (1.0% HSA)” value was 4.09 nM. In the case of B8, the “cAMP EC50 (1.0% HSA)” value is reported as 32.3 nM. B9 was tested, and the “cAMP EC50 (1.0% HSA)” value was 4.87 nM. For B10, the “cAMP EC50 (1.0% HSA)” value was 1.84 nM. In the case of B11, the “cAMP EC50 (1.0% HSA)” value is reported as 7.91 nM and the “cAMP Emax (1.0% HSA)” value is reported as 99.5%. For Y[Aib]EGT[αMePhe(2-F)]TSDV[Aib]I[αMeL]LD[Orn]QAQ[Aib][Orn]FIK([AEEA-AEEA-γGlu-Decanoyl(10-(4-HOOC-PhO))])[αMeY]LIK([AEEA-AEEA-γGlu-Decanoyl(10-(4-HOOC-PhO))])GGPSSGAPPPS-NH2 [Example 447], the “cAMP EC50 (1.0% HSA)” value was 7.85 nM and the “cAMP Emax (1.0% HSA)” value was 98.4%.
